Reference: the supplement of paper PMC9170038

Test system: MS2 coat protein
Test: apparent KD of MS2 coat protein; designed switch direction (-1 OFF switch, 1 ON switch): -1; higher = weaker reporter binding
Method in brief: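 Transcription of designed RNA switches on Illumina chips was done by stalled E. coli RNA polymerase. SNAP-549-labelled MS2 coat protein was then titrated in doubling steps from 0.7 or 1.5 nM to 3 µM, with steps of 0.8–1.5 h at the lowest and 10–20 min at the highest concentration. The per-design median over clusters of curve-fitted normalised fluorescence is reported as apparent KD.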

[1] = input ligand: microRNA oligo, concentration not stated
[2] = Eterna round: R95, input ligand: FMN 200 uM
[3] = Eterna round: R95, input ligand: microRNA oligo, concentration not stated
[4] = Eterna round: R95, input ligand: none

Sequence	apparent KD of MS2 coat protein (input ligand: FMN 200 uM) [nM]	apparent KD of MS2 coat protein [1] [nM]	apparent KD of MS2 coat protein (input ligand: none) [nM]	apparent KD of MS2 coat protein [2] [nM]	apparent KD of MS2 coat protein [3] [nM]	apparent KD of MS2 coat protein [4] [nM]
ACAUGAGGAUCACCCAUGUCCGGCUGGUCCGUCUCGGCUGUCGAGGAUAUAGCUCGGUGUCCGCGCUAGAAGGCGGGAGCUGGC [Aenatbe mod 67] (Eterna round: R96, puzzle: Exclusion NG 3)	91.5	49.8	85.1	–	–	–
ACAUGAGGAUCACCCAUGUCCGGCUGGUCUGUUCCGGUUGUCGAGGAUAUAGUUCGGUGUUCGCGCUAGAAGGCGGGAGCUGGA [Aenatbe mod 53] (Eterna round: R96, puzzle: Exclusion NG 3)	177	130	157	–	–	–
ACAUGAGGAUCACCCAUGUCCGGUUGGUCUGUUCCGGCUGUCGAGGAUAUAGUCCGGUGUUCGCGCUAGAAGGCGAGGGCUGGA [Aenatbe mod 47] (Eterna round: R96, puzzle: Exclusion NG 3)	1180	227	397	–	–	–
ACAUGAGGAUCACCCAUGUCCGGUUGGUUUUCUCCGGCUGUUGAGGAUAUAGUCCGGUAUCCGCGCUAGAAGGUGAGGGUUGGC [Aenatbe mod 12] (Eterna round: R96, puzzle: Exclusion NG 3)	212	125	165	–	–	–
ACAUGAGGAUCACCCAUGUGAAAAGAAUGGCUGACACAGAGAUAGGAUAUAUGUGCAUAUCAAACAUAGAAGGGUCAUGACUGG [Deportation 83 - Jieux - Exclusion NG 3] (Eterna round: R96, puzzle: Exclusion NG 3)	–	23	–	–	–	–
ACAUGAGGAUCACCCAUGUGAAACCAAUGGCUGACUUUGAGACAGGAUAUUCGUGCAUAUCAAACGAAGAAGGGUCAUUACUGG [Deportation 95 - Jieux - Exclusion NG 3] (Eterna round: R96, puzzle: Exclusion NG 3)	56.8	41.1	46.8	–	–	–
ACAUGAGGAUCACCCAUGUGGACGUAAUGGCUCAUGUAGAGUGAGGAUAUGUGAGACGAACGAGAACAGAAGGCACAAGACAGG [Deportation 7 - Jieux - Exclusion NG 3] (Eterna round: R96, puzzle: Exclusion NG 3)	26.3	14.5	22.1	–	–	–
ACAUGGGAGCGAGGAUAUAGCCCAUGUGAAGAACUAGAAGGCGCAGACAUGAGGAUCACCCAUGUGUUCAUGAGGAGGUGGACA (Eterna round: R96, puzzle: Exclusion NG 1)	72.7	42.4	69.4	–	–	–
ACAUGUAAUGCAGGAUAUCGGACACAUGAGGAUCACCCAUGUGACCAGAGGAAUUGCUAAGAGUCUGAGAAGGGUAUGUACAUG [Ex NG2 #52] (Eterna round: R96, puzzle: Exclusion NG 2)	23.2	12.9	19	–	–	–
ACAUGUAAUGCAGGAUAUUUUACACAUGAGGAUCACCCAUGUGACCAGAGGAAUUGCUAUGAGUAAAAGAAGGGUAUGUACAUG [Ex NG2 #57] (Eterna round: R96, puzzle: Exclusion NG 2)	–	53.9	–	–	–	–
ACAUGUAAUGUAGGAUAUUUUACACAUGAGGAUCACCCAUGUGACCAGAGGCUUUGCUAUGAGUAAAAGAAGGGUAUGUACAUG [Ex NG2 #59] (Eterna round: R96, puzzle: Exclusion NG 2)	–	51.5	–	–	–	–
ACAUGUAUUGCAGGAUAUGGGACACAUGAGGAUCACCCAUGUGACCACAUGUAAUGCCACGGGUCUCAGAAGGGUAUGUACAUG [Ex NG2 #43] (Eterna round: R96, puzzle: Exclusion NG 2)	117	22.9	26.6	–	–	–
ACAUGUCAUCUAGGAUAUUGGACACAUGAGGAUCACCCAUGUACCCGGAGGCUUUACUAUGAGUUCGAGAAGGAGAUGUACAUG [Ex NG2 #72] (Eterna round: R96, puzzle: Exclusion NG 2)	133	38.6	57.9	–	–	–
ACAUGUCAUUGAGGAUAUCGCACACAUGAGGAUCACCCAUGUAAACGGAUGCUCAUUAGUGGGUUCGAGAAGGCGAUGUACAUU [Ex NG2 #99] (Eterna round: R96, puzzle: Exclusion NG 2)	64.7	72.9	68.5	–	–	–
ACAUGUGUUGUAGGAUAUAGGACACAUGAGGAUCACCCAUGUGGUUUCAUGUCUAACCAAGCGUCCUAGAAGGACGGCAACAUG [Ex NG2 #27] (Eterna round: R96, puzzle: Exclusion NG 2)	23.4	19.4	19.4	–	–	–
ACAUGUUAUCCAUGAUAUCACAUGAGGAUCACCCAUGUUAAGGCGAUUUUGAGGUGUAAGCUUUGUGCUCGACUUAU [JR_STOV1_Sub055] (Eterna round: R97, puzzle: Sensor, turn-off variant 1)	107	–	78.8	–	–	–
ACCAGACAUGAGGAUCACCCAUGUCAGGAUAUUAUUCUACCUGAAGUUCGGGAUUGUGUGAGAAGGGACUGGGA [Eternabot (L2) Solution 86] (Eterna round: R97, puzzle: Exclusion 1)	17.4	–	16.1	–	–	–

Sequence	apparent KD of MS2 coat protein (input ligand: FMN 200 uM) [nM]	apparent KD of MS2 coat protein [1] [nM]	apparent KD of MS2 coat protein (input ligand: none) [nM]	apparent KD of MS2 coat protein [2] [nM]	apparent KD of MS2 coat protein [3] [nM]	apparent KD of MS2 coat protein [4] [nM]
ACCAUGUAAGGAUAUCUCGUACAAAGACGCAACUCGUCCAGAGAGAAGGUACAUGAGGAUCACCCAUGUAGACA [Eternabot (Original) Solution 39] (Eterna round: R97, puzzle: Exclusion 4)	152	–	33.5	–	–	–
ACCCAACAUGAGGAUCACCCAUGUCAGGAUAUCCAAGCGAAAGCAAAAGCGAAAGCAAGGAGAAGGGACAAUGG [ChP 04-04-2015 #7] (puzzle: Exclusion 1)	–	–	–	134	161	276
ACCCAACAUGAGGAUCACCCAUGUCAGGAUAUCCAUCAAAAGCACGAAAGGCGAGGAUGGAGAAGGGACAGAGG [ChP 04-04-2015 #2] (puzzle: Exclusion 1)	–	–	–	335	178	128
ACCCAACAUGAGGAUCACCCAUGUCAGGAUAUCCAUCUAUACUCGAAAGAGUAUAGAUGGAGAAGGGACAGAGG [ChP 04-04-2015 #4] (puzzle: Exclusion 1)	–	–	–	–	104	–
ACCCAGUCAGGAUAUCCGGAGUUCCGCGAUGGCGGACGGUAGGAGAAGGGACAUGAGGAUCACCCAUGUAGAAA [EX4 B.17] (Eterna round: R97, puzzle: Exclusion 4)	179	–	34.7	–	–	–
ACCGAAGCAGGAUAUACAUGAGGAUCACCCAUGUGCUUGCAUGGCGUGGGAAGUCAUAGUAGAAGGGCUACGCC [Onzaza] (Eterna round: R97, puzzle: Exclusion 3)	53	–	22.4	–	–	–
ACCGGUGUUGCGGAUAAGCUUUUCUGCUCGUUUUAUCGCACAUGAGGAUCACCCAUGUCAUCCGUCAGCAUGCAAAC [Usveen] (puzzle: Sensor v3, turn-off variant 2)	–	–	–	22.6	38.8	25.1
ACCUCACAUGAGGAUCACCCAUGUCAGGAUAUCUUUUAUUACAGCAAUCCUGUCGCUGAGAGAAGGGACAUUAA [EX1 #25] (Eterna round: R97, puzzle: Exclusion 1)	33.8	–	28.1	–	–	–
ACCUCACAUGAGGAUCACCCAUGUCAGGAUAUCUUUUAUUGCAGCAAUCCUGUCGCUGAGAGAAGGGACAUUAA [EX1 #26] (Eterna round: R97, puzzle: Exclusion 1)	30.7	–	26.5	–	–	–
ACCUCACUUGAGGAUCACCCAAGUCAGGAUAUACUCGUUUGCCGCGCGACGCGGCAUUGUAGAAGGGACGGGCU [Orquisates] (Eterna round: R97, puzzle: Exclusion 1)	32	–	18.8	–	–	–
ACCUCUUGAGGAUAUACAUGAGGAUCACCCAUGUUCCUUAAUAAAAUAGUUAUAUCGUGUAGAAGGUGGGAGGC [Eternabot (L2) Solution 42] (Eterna round: R97, puzzle: Exclusion 3)	11.4	–	69	–	–	–
ACGAGGUCAGGAUAUACGGAGAGAGGGAGUUGGUUAGGGUAACAUGAGGAUCACCCAUGUAGAAGGGACUAGGG [JR_Exclu2_Sub080] (puzzle: Exclusion 2)	–	–	–	–	39.9	–
ACGAUGACAGAAAGAAGUCAAAAGACAUGAGGAUCACCCAUGUAGGAUAUGGCUACGAAAAGUAGUCAGAAGGACAUGUCAUCA [Omei Exc(NG) 3 Av3] (Eterna round: R96, puzzle: Exclusion NG 3)	13.5	8.79	16.8	–	–	–
ACGCAUUGCCUUUGGUAGUGCGUAACAUGAGGAUCACCCAUGUAGGAUAUGGUAGGCUUUGCUUACCAGAAGGACAUUAUAAAG [Mat - Exclusion NG 3 - Mod of JL - D10] (Eterna round: R96, puzzle: Exclusion NG 3)	51.6	28.4	34.1	–	–	–
ACGCGAGUAGGAGGAUAUUCUGAGCGCGGGCCAGAAGAAGGCCUAGAUCGUGAACAUGAGGAUCACCCAUGUGGGAUGAUCUAA [Vevexeaus] (Eterna round: R96, puzzle: Exclusion NG 1)	180	224	307	–	–	–
ACGGGUAAGUAAGGAUAUCCAACAGGCUGAAUUCAACCUGAACAUGAGGAUCACCCAUGUGGGUGGGAGAAGGUACUCUCCCGC [Diladiaen] (Eterna round: R96, puzzle: Exclusion NG 2)	86.5	65.5	93.7	–	–	–
